{
  "source": "paper doi:10.1101/2025.04.02.646771",
  "molecular_target": "Leminorella grimontii GatC (Leminorella grimontii)",
  "assay": "crystal structure",
  "data": [
    {"substance": "Leminorella grimontii GatC (natural protein)", "values": [
      {"measurement": "stoichiometry N", "value": 2}
    ]}
  ]
}
